Earlier results as cited in patent publication US6200966A, “Compositions for inhibiting airway wall inflammation” (Amrad Operations Pty. Ltd., priority 1996, dated 2001).

System: cultured airway smooth muscle
Conditions: various species

B1: PDGFBB: platelet-derived growth factor (protein, UniProt P01127 82-190, looked up)
Platelet-derived growth …: SLGSLTIAEPAMIAECKTRTEVFEISRRLIDRTNANFLVWPPCVEVQRCSGCCNNRNVQCRPTQVQLRPVQVRKIEIVRKKPIFKKATVTLEDHLACKCETVAAARPVT
mitogenic activity on airway smooth muscle: most effective proliferative agents
